Results from paper PMC8324488 (Cell Reports Medicine, 2021).

Target: EBV glycoprotein gp350 (Epstein-Barr virus (strain B95-8) …, UniProt P03200-1)
Test: flow cytometry on cells

EBV glycoprotein gp350, sequence (P03200 whole entry): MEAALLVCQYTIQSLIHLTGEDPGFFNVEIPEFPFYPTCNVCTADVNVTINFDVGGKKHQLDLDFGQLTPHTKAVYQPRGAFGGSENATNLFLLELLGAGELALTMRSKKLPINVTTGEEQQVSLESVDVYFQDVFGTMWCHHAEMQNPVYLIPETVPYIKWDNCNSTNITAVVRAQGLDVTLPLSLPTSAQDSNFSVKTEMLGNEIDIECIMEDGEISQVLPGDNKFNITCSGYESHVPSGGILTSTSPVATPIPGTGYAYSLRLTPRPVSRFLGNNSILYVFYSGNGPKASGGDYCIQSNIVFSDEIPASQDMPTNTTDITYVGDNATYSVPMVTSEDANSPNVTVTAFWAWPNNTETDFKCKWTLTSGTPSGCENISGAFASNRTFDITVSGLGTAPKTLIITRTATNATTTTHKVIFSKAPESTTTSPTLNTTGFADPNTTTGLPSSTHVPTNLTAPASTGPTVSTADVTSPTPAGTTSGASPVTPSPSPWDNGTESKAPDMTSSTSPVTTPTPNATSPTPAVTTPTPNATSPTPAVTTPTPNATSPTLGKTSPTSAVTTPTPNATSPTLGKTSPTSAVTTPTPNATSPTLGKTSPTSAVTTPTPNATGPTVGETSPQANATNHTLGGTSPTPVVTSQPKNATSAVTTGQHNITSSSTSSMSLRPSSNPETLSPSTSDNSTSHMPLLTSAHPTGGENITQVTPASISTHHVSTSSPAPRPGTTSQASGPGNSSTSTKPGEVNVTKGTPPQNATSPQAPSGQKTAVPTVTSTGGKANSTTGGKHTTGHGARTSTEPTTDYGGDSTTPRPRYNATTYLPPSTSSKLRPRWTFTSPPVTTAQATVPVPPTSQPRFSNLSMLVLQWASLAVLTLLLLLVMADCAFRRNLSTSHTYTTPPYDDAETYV

B1: 72A1, original hybridoma antibody (antibody, V domains shown)
VH: EVQLQQSGPELVKPGTSMKISCKASGSSFTDYTMNWMKQSHGKNLEWIGLINPYNGGTRYNQKFKGKATLTLDKSSSTAYMEVLSLTSEDSAVYYCAGGLRRVNWFAYWGQGTLVSVSA
VL: QAVLTQESALTTSPGETVTLTCRSSTGAVTTSNYANWVQEKPDHLFTGLIGGTNNRVPGVPARFSGSLIGDKAALTITGAQTEDEAIYFCVLWHSNHWVFGGGTKLTVL
binding result: binds
